The values that follow come from the nanobody polyreactivity screen of Harvey et al. (2022).

The data set is described as follows: yeast display, Sf9 membrane polyspecificity reagent, FACS + sequencing; frameworks hold sequencing errors. In short, it runs like this:
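Polyreactivity labels are assigned by the sorting gate from which each nanobody was recovered. The gates were low and high (top ~1%), set on anti-HA fluorescence for expression and streptavidin fluorescence for reagent binding. Before sorting, galactose-induced (36–48 hours) yeast display cells were stained for 1 hour at 4 °C with 10% biotinylated, detergent-solubilized Sf9 membrane reagent.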
As for “QVQRVESGGGLVQAGGSLRLSCAASGSTIAKNAMGWYRQAPGKERELVAAISRGGNTYYADSVKGRFTISRDNAKNTVYLQMNSLKPEDTAVYYCAARYLYRSLKMDYWGQGTQVTVSS”, the “polyreactivity (PSR sort gate)” value is “high polyreactivity”.
With “QVQRVESGGGLVQAGGSLRLSCAASGVIFDDNAMGWYRQAPGKERELVAAITYRGGSTYYADSVKGRFTISRDNAKNTVYLQMNSLKPEDTAVYYCAAGGTARDDSWGQGTQVTVSS”, the “polyreactivity (PSR sort gate)” value is “low polyreactivity”.
As to “QVQRVESGGGLVQAGGSLRLSCAASRSIVNIYAMGWDRPAPGKERELVATITGIADSTYYADSVKGRFTISRDNAKNTVYLQMNSLKPEDTAVYYCAIYVSWPLYYYWGHGTQVTVSS”, the “polyreactivity (PSR sort gate)” value is listed as “low polyreactivity”.
Then “QVQRVESGGGLVQAGGSLRLSCAPSGSTFPSYAMGWYRQAPGKERELVAAITRRGGRTYYADSVKGRFTISRDNAKKTVYLQMNSLKPEDTAVYYCNRVSRKILDGDYDYWGQGTQVTVSS”, with “high polyreactivity”; and “QVQRVESGGGLVQAGGSLRLSCPASGRIFRYYAMGWYRPAPGKEREMVARITRNGGTTYYADSVKGRFTISRDNAKNTVYLQMNSLKPEDTAVYYCAATYSVPYYGAWPEYDYWGQGTQVTVSS”, with “high polyreactivity”; and “QVQRVESGGGLVQAGGSLRLSCPASGSTKFNAMGWNRQPPGKERELVATITANGDSTYYADSVKGRFTISRDNAKNTVYLQMNSLKPEDTAVYYCNADAYIRMDSWGQGTQVTVSS”, with “low polyreactivity”.
On to “QVQRVESGGGLVQAGRSLRLSCAASGRTFTVYAMGWYRQAPGKERELVAGIRRGDSTYYADSVKGRFTISRDNAKHTVYLQMNSLKPEDTAVYYCNARTSGSSYYYWGQGTQVTVCS”, for which the “polyreactivity (PSR sort gate)” value is “high polyreactivity”.
Consider “QVQRVESGGGLVQARGSLRLSCAASGSTFPAYAMGWYRQARGKEREWVATITYTGGSTFYADSVKGRFTISRDNAKNTVYLQMNILKPEDTEVYYCAADRGDQEDEFDYWGQGTQVTVSS”, for which the “polyreactivity (PSR sort gate)” value was “low polyreactivity”.
Take “QVQRVESGGRLVQAGGILRVSCAASGGTFGINAMGWYRQSPGKEREFVAAITRGDGSTYYADSVKGRFTISRDNAKNTVFIQMKSLKPEDTAVYYCAKRYFVYYSMDYWGQGTQVTVSS”: the “polyreactivity (PSR sort gate)” value is given as “low polyreactivity”.
With “QVQRVESGRGLVQAGGSLRLSCAASGRTFRINAMGWYRQSPGKERELVASINSGGRTYYADSVKGRFTISRDNAKNTVYLQMNSLKPEDTAVYYCAAAGGRTGDYWGQGTQVTGSS”, the “polyreactivity (PSR sort gate)” value was “high polyreactivity”.
On to “QVQRVESRGGLVKSGGSLRLSSASSGSTFRWYAMGWYRQAPGKERELVARINTRGGGTYYADSVKGRFTISRDNAKNTVYLQMNSLKPEDTAVYYCAAYSSWSGGLGGDYYWGQGTQVTVSS”, for which the “polyreactivity (PSR sort gate)” value is reported as “low polyreactivity”.
For the sequence “QVQRVESRVSLVQEGGSLRLSCASSGLIYYRYTMGCYINAPVKEREVFAAISSGGRTYYADSVKGRFTISRDNAKNTVYLQMNSLKPEDTAVYYCATRVYSVHAPSAVPIGGYYWGQGTQVTVSS”, the “polyreactivity (PSR sort gate)” value is on record as “high polyreactivity”.
On to “QVQRVESVGGLVQAGGRLRLSCAASGRTFVYYTMGWYRQAPGKERELVAAISWNGDDTYYADSVKGRFTISRDNAKNTVYLQMNSLKPEDTAVYYCAKESYTDYDTYYYWGQGTQVTVSS”, for which the “polyreactivity (PSR sort gate)” value is “low polyreactivity”.
With “QVQVEESGGGLVQAGGSLRLSCAASGSIFNRYAMGWYRQAPGKERELVAAISRSGSTYYADSVKGRFTISRDNAKNTVYLQMNSLKAEDTEVYYCNARGTTHHTSYDYWGQGTQVTVSS”, the “polyreactivity (PSR sort gate)” value is given as “low polyreactivity”.
Regarding “QVQVVESGGALVQEGGSLRISCAASGSIFAIYVLGWSRQAPGKERELVAAITGSGGSTYYADSVKGRFTISRDNAKITVYVQMNSQKPEDTAVYYCAARVLRVRTLTTTWGQGTQVTVSS”, the “polyreactivity (PSR sort gate)” value is “high polyreactivity”.
Turning to “QVQVVESGGGFVQAGGSLRLSCAASGFTYYSYAMGWYRQAPGKEREFVAAGSTYYADSVKGRFTISRDNAKNTVYLQMNSLTPEDTAVYYCAADPWIYVQSYGYWGQGTQVTVSS”, the “polyreactivity (PSR sort gate)” value was “low polyreactivity”.
Then “QVQVVESGGGLLQAGGSLRLSCAASGSTFGWYAMGWYRQAPWKERELVAANTGDSASTYYADSVKGRFTISRDNAKNTVYLQMNSLKPEDTAVYYCAASKFSDFGYQAVIGYGYWGQGTQVTVSS”, with “low polyreactivity”.
As to “QVQVVESGGGLLQAGGSLRLSCASSGSTFQYNAMGRYRPAPRKERELVAVITRRGGRTYYADSVKGRFTISRDNAKNTVYLQMNSLKPEDTAVYYCAAYYDYTHRFYYWGQGTQVTVSS”, the “polyreactivity (PSR sort gate)” value was “high polyreactivity”.
As for “QVQVVESGGGLVKAGGSLSLSCDASGITFVAYAMGWYRQAPGKERELVAAISYNGGSTNYADSVKGRFTISRDNAMNTVYLQINSLKPEDTAVFYCAADLADFYPRFNYWGQGTQVTVSS”, the “polyreactivity (PSR sort gate)” value was “low polyreactivity”.
In the case of “QVQVVESGGGLVNAAGSLRLSCAPSVSTSKWYTMGWDRQAPGKERELVAAITGSGGSTFYADSVKGRFTISRDNAKNTVYLQMHSLKQEDTAVYYCAADVYGGGVSFRFRYDSWGQGTQVTVSS”, the “polyreactivity (PSR sort gate)” value is “low polyreactivity”.
“QVQVVESGGGLVPAGGSLRLSCAASGRIFADNDMGWYRQAPGKERELVAGISSGGGTYADSVKGRFSISRDNAKNTVSVQTNSPKPEDTAVHYCNALHAYYVLTPYDYWGQGTQVTVSS”: the “polyreactivity (PSR sort gate)” value is “low polyreactivity”.
On to “QVQVVESGGGLVQAGGSLRLSCAASGFIFSFYAMGWYRQAPGKERELVAAINWSGGSTYYADSVKGRFTISRDNAKNTVYLQMNSLKPEDTAVYYCNAVQYFSIPKPVWLFVLRYYYWGQVTQVTVSS”, for which the “polyreactivity (PSR sort gate)” value is given as “low polyreactivity”.
For “QVQVVESGGGLVQAGGSLRLSCAASGFIFWEYAMGWYRQAAVKECELVSAISTSGGSTYYADSVKGRFTISRDNAMNSVYLQKNCLKQEDTAVYYCATDVYSGPLLKYDYWGQGTKVTVSS”, the “polyreactivity (PSR sort gate)” value is given as “low polyreactivity”.
For “QVQVVESGGGLVQAGGSLRLSCAASGFIFYVYAMGWYTQAPGKERELVAAISKRSGGTRYADSVKGRFTISRDNAKNTVYLQMNSLKPEDTAVYYCNKYGQVPGYFSLDYWGQGTQVTVSS”, the “polyreactivity (PSR sort gate)” value was “high polyreactivity”.
For “QVQVVESGGGLVQAGGSLRLSCAASGFTFAWYTMGWYRQAPGKERELVAAISTGGNTYYADSVKGRFTISRDNAKNTVYLQMNSLKPEDTAVYYCATRPRGQTYNYWGQVTQVTVSS”, the “polyreactivity (PSR sort gate)” value is “high polyreactivity”.
On to “QVQVVESGGGLVQAGGSLRLSCAASGFTFSFYAMGWYRQAPGKERELVAAISSGGTTSYADSVKGRFTISRDYAKNTVYLQMNSLKPEDTAVYYCATDVYYYRTGAYTSTKPYDYWGQGTQVTVSS”, for which the “polyreactivity (PSR sort gate)” value is “low polyreactivity”.
For the sequence “QVQVVESGGGLVQAGGSLRLSCAASGGTFGGYAMGWYRQAPGKERELVAAISSGGSTYYADSVKGRFTISRDNAKNTLYLQMNSLKPEDTAVYYCAAETVLGYWYYRKYYYWGQGTQVTVSS”, the “polyreactivity (PSR sort gate)” value is given as “high polyreactivity”.
“QVQVVESGGGLVQAGGSLRLSCAASGIIFGAYAMGWYRQAPWKEMELVAAITYSSGSTYYADSVKGRFTISRDNSKNTVYLQMNSLKPEDTAVYYCDKTNFSQSSRFNYDYWGQGTQVTVSS”: the “polyreactivity (PSR sort gate)” value is given as “low polyreactivity”.
With “QVQVVESGGGLVQAGGSLRLSCAASGINFLTNAMGWYRQAPGKERELVAAISQSGGSTYYADSVKGRFTISRDHAKNTVYLQMNSLKPEDTAVYYCAAPQRYPRFYYWGQGTQVTVSS”, the “polyreactivity (PSR sort gate)” value is on record as “high polyreactivity”.
“QVQVVESGGGLVQAGGSLRLSCAASGLTFIFNAMGWYRQAPGKERELVADISSGVNTNYADSVKGRFSISRDNEKNTVYLQMNSLKTEDTEVHYCADRLAQTTGYGYWGQGTQVNVSS”: the “polyreactivity (PSR sort gate)” value is “low polyreactivity”.
To “QVQVVESGGGLVQAGGSLRLSCAASGRIFNYYAMGWYRQAPRKERELVAVISRTGVRTHYADSVKGRFTISRDNAKNTVYLQMNCLKPEDTAVYYCNADSYVFRYDYWGQGTQVTVSS” belongs “high polyreactivity”; to “QVQVVESGGGLVQAGGSLRLSCAASGRIFPLYAMGWSRQAPGTERELVAAISSGGTTYYADSVKGRFTFSRDNAKNTVYLQMNSLKPEDTAVYYCARRPAQRWGRFDYWGQGTQVTVSS”, “low polyreactivity”; to “QVQVVESGGGLVQAGGSLRLSCAASGRIFRANAMGGYRKAPGKERELVADISRSAGSTYYADSVKGRFTISRDNAKNTVYLQLNSLKPADTAVYYCAKRGYYSFDYWGQGTQVTVSS”, “high polyreactivity”.
As to “QVQVVESGGGLVQAGGSLRLSCAASGSIFVYYTMGWYRQAPGKERELVAAITRGGRTNFADSVKGRFTISRDNAQNSVYLLMNSLNPEDTAVYYCAKGYYWLSTYGDSRYGYWGQGTQVTVSS”, the “polyreactivity (PSR sort gate)” value is on record as “high polyreactivity”.
For “QVQVVESGGGLVQAGGSLRLSCAASGSIVSHYAMGWYRQAPGKERELVAGISRRGGRTYYADSVKGRFTISRDNAKNTVYLQMNSLKPEDTAVYYCAALRSSSFGYWGQGTQVTVSS”, the “polyreactivity (PSR sort gate)” value was “high polyreactivity”.
Turning to “QVQVVESGGGLVQAGGSLRLSCAASGSNFQRYTMGLYRQAPGKDRELVAAITGRGGSTYYADSVKGRFTISRDNAKNTVYLEMNSLKPEDTAVYYCAAGAFRRYKSDYYYWGQGTQVTVSS”, the “polyreactivity (PSR sort gate)” value is “low polyreactivity”.
Take “QVQVVESGGGLVQAGGSLRLSCAASGSTFKKYAMGWYRQAPGKERELVAAISWSGGSTYYADSVKGRFTISRDNAKNTVYLQMNSLKPEDTAVYYCAAYPYTYYLDRYEYWGQGTQVTVSS”: the “polyreactivity (PSR sort gate)” value is given as “high polyreactivity”.
“QVQVVESGGGLVQAGGSLRLSCAASGSTFQYYAMGWYRQAPGKEREFFAAITWSGGRTYYADSVKGRFTISRDNAKNTVYLQMKSLKPEDTAVYYCAADIDGVWIPYEYDYWGQGTQGTVSS”: the “polyreactivity (PSR sort gate)” value was “low polyreactivity”.
Take “QVQVVESGGGLVQAGGSLRLSCAASGSTFYINAIGWYRQAPGNERELVAAIYFRGGSTYYADSVKGRFPISRDNAKNTVYVKMNSLKPEVTAVYYCAAYYYFFRRYSWRLSCDYWGQGTQVTVSS”: the “polyreactivity (PSR sort gate)” value is given as “low polyreactivity”.
Take “QVQVVESGGGLVQAGGSLRLSCAPSGRIFLGNRMSWYRHAPGKERELVAAISKSGGTTYYADSVKGRFTISRDNAKNTVYLQMNSLKPEDTAVYYCAASRPRPPSSRRMDYWGQGTQVTVSS”: the “polyreactivity (PSR sort gate)” value was “high polyreactivity”.
Then “QVQVVESGGGLVQAGGSLRLTCAASGRTFYKNAMGWYRQAAGKERELFAAITTRGGTTFYADSVKGRFTISRDNAKNTDYLQLNSMIPEDTAVDYCAKDSYTRPRGYDFWGQGTHVTVSS”, with “high polyreactivity”.
